Patent US20210253718A1 (MODMAB THERAPEUTICS, published 2021)
Each block holds one binder with its values, some of them ahead of it.

Legend:
[1] = target: T1, FZD3 cysteine-rich domain (CRD), MYC-tagged and GPI-anchored on CHO cells (human, UniProt Q9NPG1 24-150, GPI anchor); test: flow cytometry, CHO-CRD cells;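 note: flow cytometry of Fab binding to CHO cells overexpressing a Frizzled CRD, with binding defined as median fluorescence over twice that of CHO cells lacking any Frizzled CRD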
T1 construct: domain: cysteine-rich domain (CRD); also called FZD3 CRD; CHO-myc-FZDGPI; not shown: MYC tag and GPI anchor signal
T1 sequence (looked up): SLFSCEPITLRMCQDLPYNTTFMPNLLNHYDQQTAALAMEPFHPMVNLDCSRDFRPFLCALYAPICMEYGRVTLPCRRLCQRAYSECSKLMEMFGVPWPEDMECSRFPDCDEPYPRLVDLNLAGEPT

[2] = target: T2, FZD4 cysteine-rich domain (CRD), MYC-tagged and GPI-anchored on CHO cells (human, UniProt Q9ULV1 42-167, GPI anchor); test: flow cytometry, CHO-CRD cells;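 note: flow cytometry of Fab binding to CHO cells overexpressing a Frizzled CRD, with binding defined as median fluorescence over twice that of CHO cells lacking any Frizzled CRD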
T2 construct: also called FZD4 CRD; CHO-myc-FZDGPI; not shown: MYC tag and GPI anchor signal
T2 sequence: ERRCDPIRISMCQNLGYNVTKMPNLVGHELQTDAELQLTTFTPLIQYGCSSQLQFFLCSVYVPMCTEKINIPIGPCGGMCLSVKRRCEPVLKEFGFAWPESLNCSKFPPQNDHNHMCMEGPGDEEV

[3] = target: T3, FZD5 cysteine-rich domain (CRD), MYC-tagged and GPI-anchored on CHO cells (human, UniProt Q13467 29-156, GPI anchor); test: flow cytometry, CHO-CRD cells;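 note: flow cytometry of Fab binding to CHO cells overexpressing a Frizzled CRD, with binding defined as median fluorescence over twice that of CHO cells lacking any Frizzled CRD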
T3 construct: also called FZD5 CRD; CHO-myc-FZDGPI; not shown: MYC tag and GPI anchor signal
T3 sequence: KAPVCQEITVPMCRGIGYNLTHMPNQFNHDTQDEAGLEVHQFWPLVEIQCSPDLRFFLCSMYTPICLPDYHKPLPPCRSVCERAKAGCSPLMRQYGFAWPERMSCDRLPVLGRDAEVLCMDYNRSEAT

[4] = target: T4, FZD6 cysteine-rich domain (CRD), MYC-tagged and GPI-anchored on CHO cells (human, UniProt O60353 20-146, GPI anchor); test: flow cytometry, CHO-CRD cells;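 note: flow cytometry of Fab binding to CHO cells overexpressing a Frizzled CRD, with binding defined as median fluorescence over twice that of CHO cells lacking any Frizzled CRD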
T4 construct: also called FZD6 CRD; CHO-myc-FZDGPI; not shown: MYC tag and GPI anchor signal
T4 sequence: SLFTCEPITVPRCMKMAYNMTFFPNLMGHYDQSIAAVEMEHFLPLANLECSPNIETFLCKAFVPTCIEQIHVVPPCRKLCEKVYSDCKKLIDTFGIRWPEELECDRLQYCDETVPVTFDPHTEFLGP

[5] = target: T5, FZD7 cysteine-rich domain (CRD), MYC-tagged and GPI-anchored on CHO cells (human, UniProt O75084 45-169); test: flow cytometry, CHO-CRD cells
[6] = target: T6, FZD9 cysteine-rich domain (CRD), MYC-tagged and GPI-anchored on CHO cells (human, UniProt O00144 35-161, GPI anchor); test: flow cytometry, CHO-CRD cells
T6 construct: also called FZD9 CRD; CHO-myc-FZDGPI; not shown: MYC tag and GPI anchor signal
T6 sequence: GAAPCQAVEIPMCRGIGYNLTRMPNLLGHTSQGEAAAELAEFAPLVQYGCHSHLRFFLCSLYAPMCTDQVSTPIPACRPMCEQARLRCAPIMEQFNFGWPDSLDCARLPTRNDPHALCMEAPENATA

[7] = target: T7, FZD10 cysteine-rich domain (CRD), MYC-tagged and GPI-anchored on CHO cells (human, UniProt Q9ULW2 30-156, GPI anchor); test: flow cytometry, CHO-CRD cells
T7 construct: also called FZD10 CRD; CHO-myc-FZDGPI; not shown: MYC tag and GPI anchor signal
T7 sequence: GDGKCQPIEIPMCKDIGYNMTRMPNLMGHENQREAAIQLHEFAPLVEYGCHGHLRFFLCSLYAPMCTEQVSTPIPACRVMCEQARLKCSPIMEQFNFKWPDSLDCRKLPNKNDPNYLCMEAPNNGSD

[8] = target: T1, FZD3 cysteine-rich domain (CRD), …; test: flow cytometry on CHO-GPI cells over-expressing the Frizzled CRD;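 note: binding of recombinant anti-Frizzled Fabs to the cells, read as fold mean fluorescence intensity above secondary-antibody-only background and normalized to control CHO-GPI cells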
[9] = target: T2, FZD4 cysteine-rich domain (CRD), …; test: as above
[10] = target: T3, FZD5 cysteine-rich domain (CRD), …; test: as above
[11] = target: T4, FZD6 cysteine-rich domain (CRD), …; test: as above
[12] = target: T5, FZD7 cysteine-rich domain (CRD), …; test: as above
[13] = target: T6, FZD9 cysteine-rich domain (CRD), …; test: as above
[14] = target: T7, FZD10 cysteine-rich domain (CRD), …; test: as above
[15] = target: T8, FZD1 cysteine-rich domain (CRD), MYC-tagged and GPI-anchored on CHO cells (human); test: flow cytometry, CHO-CRD cells
[16] = target: T9, FZD2 cysteine-rich domain (CRD), MYC-tagged and GPI-anchored on CHO cells (human, UniProt Q14332 35-161); test: flow cytometry, CHO-CRD cells
[17] = target: T10, FZD8 cysteine-rich domain (CRD), MYC-tagged and GPI-anchored on CHO cells (human, UniProt Q498S8 31-155 (rat entry), GPI anchor); test: flow cytometry, CHO-CRD cells
T10 construct: also called FZD8 CRD; CHO-myc-FZDGPI; not shown: MYC tag and GPI anchor signal
T10 sequence: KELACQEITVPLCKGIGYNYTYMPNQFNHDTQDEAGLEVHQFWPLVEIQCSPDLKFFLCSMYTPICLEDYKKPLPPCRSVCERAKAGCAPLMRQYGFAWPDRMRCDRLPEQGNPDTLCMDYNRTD

[18] = target: T8, FZD1 cysteine-rich domain (CRD), …; test: immunofluorescence, CHO-CRD cells
[19] = target: T9, FZD2 cysteine-rich domain (CRD), …; test: immunofluorescence, CHO-CRD cells
[20] = target: T1, FZD3 cysteine-rich domain (CRD), …; test: immunofluorescence, CHO-CRD cells
[21] = target: T2, FZD4 cysteine-rich domain (CRD), …; test: immunofluorescence, CHO-CRD cells
[22] = target: T4, FZD6 cysteine-rich domain (CRD), …; test: immunofluorescence, CHO-CRD cells
[23] = target: T5, FZD7 cysteine-rich domain (CRD), …; test: immunofluorescence, CHO-CRD cells
[24] = target: T6, FZD9 cysteine-rich domain (CRD), …; test: immunofluorescence, CHO-CRD cells
[25] = target: T7, FZD10 cysteine-rich domain (CRD), …; test: immunofluorescence, CHO-CRD cells
FZD1-Fc = target: T11, FZD1-Fc (UniProt Q9UP38 73-250, limits assumed); test: SPR, Frizzled-Fc chimera;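 note: binding targets are Fc fusions carrying an extracellular Frizzled fragment that contains the CRD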
T11 construct: extracellular domain; also called Frizzled-Fc chimera (FZD1); not shown: Fc part
T11 sequence (Q9UP38 73-250 limits assumed): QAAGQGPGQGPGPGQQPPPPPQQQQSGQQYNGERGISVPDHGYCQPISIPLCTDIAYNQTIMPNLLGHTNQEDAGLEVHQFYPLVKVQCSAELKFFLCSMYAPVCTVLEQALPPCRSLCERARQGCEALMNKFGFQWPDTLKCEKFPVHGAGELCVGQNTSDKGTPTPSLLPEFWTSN

FZD2-Fc = target: T12, FZD2-Fc (UniProt Q14332 24-190, limits assumed); test: SPR, Frizzled-Fc chimera;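 note: binding targets are Fc fusions carrying an extracellular Frizzled fragment that contains the CRD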
T12 construct: extracellular domain; also called Frizzled-Fc chimera (FZD2); not shown: Fc part

[26] = target: T13, recombinant human FZD5-Fc chimera (R&D Systems, Catalog no. 1617-FZ) (human, UniProt Q13467 27-167); test: SPR, Frizzled-Fc chimera;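 note: binding targets are Fc fusions carrying an extracellular Frizzled fragment that contains the CRD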
T13 construct: used for selection and ELISA; Fc part of the bought chimera not given
T13 sequence: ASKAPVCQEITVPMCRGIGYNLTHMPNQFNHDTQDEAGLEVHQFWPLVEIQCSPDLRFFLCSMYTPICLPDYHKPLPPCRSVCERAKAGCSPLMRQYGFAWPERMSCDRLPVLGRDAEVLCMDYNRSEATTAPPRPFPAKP

FZD7-Fc = FZD7-Fc (UniProt O75084 33-185); test: SPR, Frizzled-Fc chimera;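 note: binding targets are Fc fusions carrying an extracellular Frizzled fragment that contains the CRD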
FZD8-Fc = target: T14, FZD8-Fc (UniProt Q9H461 28-158, limits assumed); test: SPR, Frizzled-Fc chimera
T14 construct: extracellular domain; also called Frizzled-Fc chimera (FZD8); not shown: Fc part
T14 sequence (looked up): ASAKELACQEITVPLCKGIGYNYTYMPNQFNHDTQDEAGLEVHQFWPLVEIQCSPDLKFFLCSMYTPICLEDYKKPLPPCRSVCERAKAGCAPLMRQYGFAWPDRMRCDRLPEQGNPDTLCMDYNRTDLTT

median fluorescence [1]: 4.37
median fluorescence [2]: 5.19
median fluorescence [3]: 42.9
median fluorescence [4]: 3.08
median fluorescence [5]: 5.94
median fluorescence [6]: 4.49
median fluorescence [7]: 3.96
binding result [8]: no binding (tested: 200 nM)
binding result [9]: no binding (tested: 200 nM)
fold-increase in mean fluorescence intensity over background (secondary antibody alone), normalized to control CHO-GPI [10]: 13 fold
binding result [11]: no binding (tested: 200 nM)
binding result [12]: no binding (tested: 200 nM)
binding result [13]: no binding (tested: 200 nM)
binding result [14]: no binding (tested: 200 nM)
B1: Fab-2928 (Fab, V domains shown)
VH: EVQLVESGGGLVQPGGSLRLSCAASGFNISYSSIHWVRQAPGKGLEWVASIYPSYSSTYYADSVKGRFTISADTSKNTAYLQMNSLRAEDTAVYYCARYYAMDYWGQGTLVTVSS
VL: DIQMTQSPSSLSASVGDRVTITCRASQSVSSAVAWYQQKPGKAPKLLIYSASSLYSGVPSRFSGSRSGTDFTLTISSLQPEDFATYYCQQAFYYPITFGQGTKVEIK
notes: Fab; also called Fv-2928

median fluorescence [15]: 7.17
median fluorescence [16]: 6.21
median fluorescence [1]: 4.61
median fluorescence [2]: 6.73
median fluorescence [3]: 34.6
median fluorescence [4]: 3.05
median fluorescence [5]: 2.71
median fluorescence [17]: 12.9
median fluorescence [6]: 3.65
median fluorescence [7]: 2.92
binding result [18]: no binding
binding result [19]: no binding
binding result [20]: no binding
binding result [21]: no binding
binding result [22]: no binding
binding result [23]: no binding
binding result [24]: no binding
binding result [25]: no binding
B2: Fab-2926 (Fab, V domains shown)
VH: EVQLVESGGGLVQPGGSLRLSCAASGFNIYSSYMHWVRQAPGKGLEWVASIYPSSSSTSYADSVKGRFTISADTSKNTAYLQMNSLRAEDTAVYYCARGGLDYWGQGTLVTVSS
VL: DIQMTQSPSSLSASVGDRVTITCRASQSVSSAVAWYQQKPGKAPKLLIYSASSLYSGVPSRFSGSRSGTDFTLTISSLQPEDFATYYCQQWYHGGSLFTFGQGTKVEIK
notes: Fab; also called Fv-2926

Kd (FZD1-Fc): 1.24 nM
koff (FZD1-Fc): 0.000451 s⁻¹
kon (FZD1-Fc): 364000 M⁻¹ s⁻¹
Kd (FZD2-Fc): 0.905 nM
koff (FZD2-Fc): 0.000452 s⁻¹
kon (FZD2-Fc): 500000 M⁻¹ s⁻¹
Kd [26]: 9.88 pM
koff [26]: 1.3e-05 s⁻¹
kon [26]: 1.32e+06 M⁻¹ s⁻¹
Kd (FZD7-Fc): 0.496 nM
koff (FZD7-Fc): 0.000382 s⁻¹
kon (FZD7-Fc): 770000 M⁻¹ s⁻¹
Kd (FZD8-Fc): 0.0455 nM
koff (FZD8-Fc): 4.75e-05 s⁻¹
kon (FZD8-Fc): 1.04e+06 M⁻¹ s⁻¹
B3: IgG-2916 (antibody, V domains shown)
VH: EVQLVESGGGLVQPGGSLRLSCAASGFNISYSSIHWVRQAPGKGLEWVASIYPSYSYTYYADSVKGRFTISADTSKNTAYLQMNSLRAEDTAVYYCARYGYYGMDYWGQGTLVTVSS
VL: DIQMTQSPSSLSASVGDRVTITCRASQSVSSAVAWYQQKPGKAPKLLIYSASSLYSGVPSRFSGSRSGTDFTLTISSLQPEDFATYYCQQWYHYPYLITFGQGTKVEIK
